The record followed here is patent US20200405759A1 (UCL BUSINESS, published 2020).

The target of the test is T1, human ROR1-Fz domain with Q(261)H and I(254)V (human, UniProt Q01973 165-299).
T1 construct: domain: Fz; it is not clear whether the construct was Fz only or a longer ROR1
Description: antibody binding to point mutants of human ROR1, FIG. 7.

T1 sequence (Q01973 165-299 I254V/Q261H): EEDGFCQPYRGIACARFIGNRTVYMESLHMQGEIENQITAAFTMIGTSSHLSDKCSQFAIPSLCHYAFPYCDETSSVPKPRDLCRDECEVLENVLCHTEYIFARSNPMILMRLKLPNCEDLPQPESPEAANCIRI

B1: Clone F anti-ROR1 antibody (whole immunoglobulin) (antibody, V domains shown)
VH: EVQLVESGGGLVQPGRSLKLSCAASGFIFSEHNMAWVRQAPKKGLEWVATISDDGRNTYYRDSMRGRFTISRENARSTLYLQLDSLRSEDTATYYCASHRYNLFDSWGQGVMVTVSS
VL: DIQMTQSPSFLSASVGDRVTINCKASQNIDRYLNWYQQKLGEAPKRLLYNTNKLQTGIPSRFSGSGSATDFTLTISSLQPEDFATYFCLQYNSLPLTFGSGTKLEIK
notes: Rat variable domains; also called clone F antibody
Regarding B1, the binding result is given as “no binding”.
